Data as given in the supplement of paper PMC10567573.

B1: INTS3 (parent)
chain: DLNSKGKKREFRFHPIKETVVEEP

Variants of: B1
Assay: protein stability index of a GFP-peptide fusion (GPS, HEK-293T) (PSI 1-6); higher = more stable
Conditions: c terminus: a fixed tail appended
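Further: lentivirally expressed fusions sorted by FACS into six bins by GFP to DsRed ratio, PSI derived from sequencing read proportions per bin multiplied by bin number.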

Variant	protein stability index
DLNSKGKKREFRWHPIKETVVEEP [F13W]	3.72
DLNSKGKKREFRQHPIKETVVEEP [F13Q]	4.5
DLNSKGKKREFRTHPIKETVVEEP [F13T]	4.02
DLNSKGKKREFRSHPIKETVVEEP [F13S]	4.27
DLNSKGKKREFRHHPIKETVVEEP [F13H]	3.75
DLNSKGKKREFRRHPIKETVVEEP [F13R]	3.99
DLNSKGKKREFRYHPIKETVVEEP [F13Y]	2.47
DLNSKGKKREFRIHPIKETVVEEP [F13I]	3.78
DLNSKGKKREFRMHPIKETVVEEP [F13M]	4.25
DLNSKGKKREFRAHPIKETVVEEP [F13A]	4.44
DLNSKGKKREFREHPIKETVVEEP [F13E]	4.75
DLNSKGKKREFRKHPIKETVVEEP [F13K]	4.06
DLNSKGKKREFRLHPIKETVVEEP [F13L]	4.78
DLNSKGKKREFRGHPIKETVVEEP [F13G]	4.31
DLNSKGKKREFRVHPIKETVVEEP [F13V]	4.47
DLNSKGKKREFRCHPIKETVVEEP [F13C]	3.94
DLNSKGKKREFRDHPIKETVVEEP [F13D]	4.71
DLNSKGKKREFRNHPIKETVVEEP [F13N]	4.65
DLNSKGKKREFRPHPIKETVVEEP [F13P]	4.48
DLNSKGKKREFRFMPIKETVVEEP [H14M]	3.53
DLNSKGKKREFRFPPIKETVVEEP [H14P]	4.35
DLNSKGKKREFRFTPIKETVVEEP [H14T]	3.7
DLNSKGKKREFRFDPIKETVVEEP [H14D]	4.59
DLNSKGKKREFRFRPIKETVVEEP [H14R]	3.88

Variant	protein stability index
DLNSKGKKREFRFFPIKETVVEEP [H14F]	3.34
DLNSKGKKREFRFCPIKETVVEEP [H14C]	3.36
DLNSKGKKREFRFIPIKETVVEEP [H14I]	3.57
DLNSKGKKREFRFSPIKETVVEEP [H14S]	3.89
DLNSKGKKREFRFLPIKETVVEEP [H14L]	4.01
DLNSKGKKREFRFVPIKETVVEEP [H14V]	2.73
DLNSKGKKREFRFAPIKETVVEEP [H14A]	3.83
DLNSKGKKREFRFKPIKETVVEEP [H14K]	3.91
DLNSKGKKREFRFEPIKETVVEEP [H14E]	4.13
DLNSKGKKREFRFGPIKETVVEEP [H14G]	4.02
DLNSKGKKREFRFNPIKETVVEEP [H14N]	3.84
DLNSKGKKREFRFYPIKETVVEEP [H14Y]	3.74
DLNSKGKKREFRFQPIKETVVEEP [H14Q]	3.78
DLNSKGKKREFRFWPIKETVVEEP [H14W]	3.44
DLNSKGKKYEFRFHPIKETVVEEP [R9Y]	2.31
DLNSKGKKFEFRFHPIKETVVEEP [R9F]	1.65
DLNSKGKKNEFRFHPIKETVVEEP [R9N]	2.49
DLNSKGKKVEFRFHPIKETVVEEP [R9V]	2.37
DLNSKGKKKEFRFHPIKETVVEEP [R9K]	3.07
DLNSKGKKMEFRFHPIKETVVEEP [R9M]	1.78
DLNSKGKKAEFRFHPIKETVVEEP [R9A]	2.87
DLNSKGKKQEFRFHPIKETVVEEP [R9Q]	2.83
DLNSKGKKWEFRFHPIKETVVEEP [R9W]	2.21
DLNSKGKKTEFRFHPIKETVVEEP [R9T]	2.56

Variant	protein stability index
DLNSKGKKCEFRFHPIKETVVEEP [R9C]	2.31
DLNSKGKKDEFRFHPIKETVVEEP [R9D]	4.09
DLNSKGKKEEFRFHPIKETVVEEP [R9E]	3.73
DLNSKGKKGEFRFHPIKETVVEEP [R9G]	2.41
DLNSKGKKHEFRFHPIKETVVEEP [R9H]	1.79
DLNSKGKKIEFRFHPIKETVVEEP [R9I]	2.35
DLNSKGKKPEFRFHPIKETVVEEP [R9P]	2.34
DLNSKGKKLEFRFHPIKETVVEEP [R9L]	1.78
DLNSKGKKSEFRFHPIKETVVEEP [R9S]	2.53
DLNSKGKKREFRFHPIKLTVVEEP [E18L]	2.83
DLNSKGKKREFRFHPIKQTVVEEP [E18Q]	1.58
DLNSKGKKREFRFHPIKNTVVEEP [E18N]	1.63
DLNSKGKKREFRFHPIKKTVVEEP [E18K]	1.79
DLNSKGKKREFRFHPIKGTVVEEP [E18G]	2.1
DLNSKGKKREFRFHPIKTTVVEEP [E18T]	2.7
DLNSKGKKREFRFHPIKSTVVEEP [E18S]	1.94
DLNSKGKKREFRFHPIKDTVVEEP [E18D]	2.68
DLNSKGKKREFRFHPIKCTVVEEP [E18C]	2.48
DLNSKGKKREFRFHPIKRTVVEEP [E18R]	1.87
DLNSKGKKREFRFHPIKFTVVEEP [E18F]	2.1
DLNSKGKKREFRFHPIKHTVVEEP [E18H]	2.13
DLNSKGKKREFRFHPIKITVVEEP [E18I]	1.96
DLNSKGKKREFRFHPIKPTVVEEP [E18P]	2.19
DLNSKGKKREFRFHPIKMTVVEEP [E18M]	2.28

Variant	protein stability index
DLNSKGKKREFRFHPIKATVVEEP [E18A]	2.42
DLNSKGKKREFNFHPIKETVVEEP [R12N]	3.74
DLNSKGKKREFAFHPIKETVVEEP [R12A]	4.15
DLNSKGKKREFPFHPIKETVVEEP [R12P]	4.07
DLNSKGKKREFWFHPIKETVVEEP [R12W]	3.02
DLNSKGKKREFCFHPIKETVVEEP [R12C]	3.99
DLNSKGKKREFIFHPIKETVVEEP [R12I]	3.79
DLNSKGKKREFEFHPIKETVVEEP [R12E]	4.03
DLNSKGKKREFVFHPIKETVVEEP [R12V]	3.55
DLNSKGKKREFTFHPIKETVVEEP [R12T]	4.28
DLNSKGKKREFHFHPIKETVVEEP [R12H]	4.2
DLNSKGKKREFMFHPIKETVVEEP [R12M]	4.12
DLNSKGKKREFFFHPIKETVVEEP [R12F]	3.13
DLNSKGKKREFGFHPIKETVVEEP [R12G]	4.24
DLNSKGKKREFDFHPIKETVVEEP [R12D]	4.25
DLNSKGKKREFKFHPIKETVVEEP [R12K]	4.11
DLNSKGKKREFLFHPIKETVVEEP [R12L]	3.57
DLNSKGKKREFQFHPIKETVVEEP [R12Q]	4
DLNSKGKKREFSFHPIKETVVEEP [R12S]	4.04
DLNSKGKKREFYFHPIKETVVEEP [R12Y]	4.12
DLNSKGKKRENRFHPIKETVVEEP [F11N]	4.13
DLNSKGKKREKRFHPIKETVVEEP [F11K]	4.46
